# Source: patent US20230303681A1 (published 2023)
# Residue numbers refer to the chain shown, from its start. Several values for one entry are separate records, joined by “and”; a condition that tells them apart may be missing. Identical values can stand only once.
# B1: anti-TMEM106B antibody TM-46 (antibody, V domains shown)
# VH: QVQLQQSGADLVKPGASVKISCKASGYAFSSFWMNWVKLRPGKGLEWIGQIYPGDGDTDYNGKFKDKATLTADTSSNTAYMQLSRLTSEDSAVYFCARGDGFSYFDYWGQGTILTVSS
# VL: QIVLTQSPVIMSASPGERVTMTCCASSRVNYMHWYQQKSGSYPKRWIYDTSKLASGVPGRFSGSGSGTSYSLTISSMEAEDAATYYCQQWSSNPPTFGGGTKLEIK
# B2: anti-TMEM106B antibody TM-34 (antibody, V domains shown)
# VH: EVQLVESGGGLVKPGGSLKLSCAASGFSFSDSGMDWVRQAPEKGLEWFAYISSGSSTTHYADTVKGRFIISRDNAKNTLFLQMTSLRSEDTAMYYCVRRDGNYWYFDVWGTGTTVTVSS
# VL: QIVLSQSPVILSASPGEKVTMTCRATSSVTYMHWYQLKPGSSPKPWIYATSNLASGVPARFSGSGSGTSYSLTISRVEAEDAATYYCQQWSSNPYTFGGGTKLEIK
# B3: anti-TMEM106B antibody TM-5 (antibody, V domains shown)
# VH: QVQLQQSGTELARPGASVKVSCKASGYIFTTYGITWVKQRGGQGLEWIGEIYPRSDNTYYNEKFKDKATLTADKSSSTAYMELRSLTSEDSAVYFCARSKGSGTGDYWGQGTTVTVSS
# VL: DIQMTQSPASLSASVGETVTITCRASENIYIYLAWYQQKQGKTPQLLVYNGKMLAENVPSRFSGSGSGTQFSLKINSLQPEDFGSYYCQHHYGSPPAFGAGTKLELK
# B4: anti-TMEM106B antibody TM-29 (antibody, V domains shown)
# VH: QVQLRQSGAELVRPGASVKLSCKASGYTFTDYYINWVKQRPGQGLEWIARIYPGSGYTYYNEKFKGKATLTAEGSSNTAYMQLSSLTSEDSAVYFCANHYTNPFAYWGQGTLVTVSA
# VL: DIVMTQAAFSNPVTLGTSASISCRSSKSLLHYNGITYLYWYLQKPGQSPQLLIYQMSNLASGVPDRFSSSGSGTDFTLRISRVEAEDVGVYYCAQNLELPYTFGGGTKLEIK
# B5: anti-TMEM106B antibody TM-9 (antibody, V domains shown)
# VH: EVQLVESGGDLVKPGGSLKLSCVASGFTFSGYGMSWVRQTPDKRLEWVATISSGSFYIYYPDSVKGRLTVSRDNAKNTLYLQMSSLKSEDTAIYYCARQNFYYGCEDYWGQGTTLTVSS
# VL: B4 VL with Y32S, D65N, Y101W
# B6: anti-TMEM106B antibody TM-3 (antibody, V domains shown)
# VH: QVTLKESGPGIVQPSQTLSLTCSFSGFSLNTLGRGVGWIRQPSGKGLEWLAKIWWNDDKFYYPALKSRLTISKDTSKNQIFLKIANVDTADSATYYCARIAGGTGAAYWGQGTTLTVSS
# VL: B4 VL with Y32S, Y54S, N58S, S70G, Y91F, Y101W, I111L
# B7: anti-TMEM106B antibody TM-28 (antibody, V domains shown)
# VH: EVQLQQSGPVLVKPGPSVKISCMASVFTFNDYYIHWVKQSHGKSLEWIGLVYPYNGGTNYNQNFKGKATLTVDTSSRTAYMELNSLTSEDSAVYYCARSYFSNPIGYWGQGTLVTVSE
# VL: DIVMTQSPSSLSVSVGEKVTVSCKSSQSLLNSGNQKNYLAWYQQKPGQPPKLLIYGASTRESGVPDRFTGSGSGTDFTLTISSVQAEDLAVYYCQNDHSYPLTFGAGTKLELK
# B8: anti-TMEM106B antibody TM-7 (antibody, V domains shown)
# VH: EVQLQQSGPVLVKPGPPVKISCKASGFTFTDYYIHWVKLSHGKSLEWIGLVYPYNGDTDYNQKFKGKATLTVDTSSSTAYMELNSLTSEDSAVYYCARTYYANSPDYWGQGTTVTVSS
# VL: B7 VL with V15A, V21M, K36R, S83N
# B9: anti-TMEM106B antibody TM-47 (antibody, V domains shown)
# VH: QVQLKESGPVLVAPSQSLSITCTVSGFSLTNYGVHWVRQPPGKGLEWLGVIWAGGNTNYNSALMSRLSISKDNSKSQVFLKMNSLQTDDTAMYYCAKEAKLLRSYAMDYWGQGTSVTVSS
# VL: B7 VL with S12T, S14T, V15A, V21M, A40T, G56W, H98Y, L112I
# notes: mouse IgG from hybridoma
# Experiments:
# [1] = target: T1, GST (Pierce) (UniProt P08515 1-218 = GST, limits assumed); experiment: array SPR, Ab immobilised
# T1 construct: control for the GST part of the fusion protein; also called GST protein; Glutathione-S-transferase
# [2] = target: T2, human TMEM106B (human, UniProt Q9NUM4 2-274); experiment: FACS A549
# T2 construct: Full-length, on transiently transfected HEK293 cells, or natively expressed on HeLa, U251 and A549 cells; also called huTMEM106B; huTMEM
# [3] = target: T2, human TMEM106B; experiment: FACS HeLa;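 further: flow cytometry of cells incubated with hybridoma supernatant or purified antibody at 10 µg/ml for 1 h on ice, propidium iodide–positive dead cells gated out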
# [4] = target: T2, human TMEM106B; experiment: FACS U251;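 further: flow cytometry of cells exposed to antibody (purified at 10 µg/mL, or hybridoma supernatant) for 1 h on ice, with propidium iodide-positive dead cells gated out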
# Protocol: (§1) All cells were cultured in either T75 or T150 flasks. […] The enzyme was quenched by addition of fresh media, and the cells were then distributed into 96-well plates for FACS analysis.
# (§2) FACS analysis was performed as follows. Each cell type was aliquoted in 96-well round bottom plates (2x10^5 cells per well), washed once with FACS buffer (PBS + 2% FBS + 1 mM EDTA), and incubated with 50 µL of hybridoma supernatant or purified antibody (10 µg/ml in FACS buffer) on ice for 1 hour. […] Following this secondary incubation, the cells were again washed 2x with ice-cold FACS buffer and resuspended in a final volume of 50 µL of FACS buffer + 0.25 µl/well propidium iodide (Fisher Scientific # BDB556463). Analysis was performed on a FACSCanto system (BD Biosciences) or iQue (Intellicyt), with sort gates drawn to exclude dead (i.e., propidium iodide positive) cells.
# (§3) Data is presented as mean fluorescence intensity (MFI).
# [5] = target: T3, mouse TMEM106B (mouse, UniProt Q80X71 2-275); experiment: FACS Neuro2a;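 further: flow cytometry of cells stained with antibody or hybridoma supernatant (purified antibody at 10 µg/ml) for 1 h on ice, propidium iodide–positive dead cells gated out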
# T3 construct: on transiently transfected HEK293 cells, or natively expressed on mouse Neuro2a cells; also called moTMEM106B; murine TMEM106B
# Protocol: as §1, §2, §3
# [6] = target: T1, GST (Pierce); experiment: ELISA, coated GST;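 further: ELISA on plates coated with GST alone at 1-10 µg/ml, antibodies applied at 100-1000x dilution, bound antibody detected by peroxidase substrate colour after acid stop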
# Protocol: Briefly, 96-well polystyrene plates were coated with 1-10 µg/ml of recombinant GST-TMEM106B-truncated protein or GST (Pierce) in PBS either at 370 Cfor 1-4 hours or overnight at 4 °C. Coated plates were then blocked with 5% BSA for 1-hour, washed 3×150 µL in TBST (Tris-buffered saline + 0.1% Tween20), and then the antibodies were added at various dilutions (100-1000x) in PBS. After 1-hour incubation (room temperature, with shaking), the plates were washed 3x150 µL in TBST. […] After a final set of washes (3×150µL in TBST), 100 µL of peroxidase substrate was added for 1 minute; the reaction was then quenched with 2N sulfuric acid (100 µL).
# [7] = target: T2, human TMEM106B; experiment: FACS A549, 1 ug/ml
# Protocol: (§4) Purified anti-TMEM106B antibodies were evaluated for their binding affinity to various TMEM106B-expressing cell lines including HEK293 transiently transfected with human/cyno/mouse TMEM106B, as well as HeLa cells and A549 cells. Antibodies tested for this experiment were mouse IgGs purified from hybridoma supernatant. Affinity binding to cells was determined as follows. Briefly, 1x10^5 cells were aliquoted per well in 96-well round bottom plates and incubated with 50 µL of purified anti-TMEM106B antibody at various concentrations (10x dilutions starting at 10 µg/ml) in FACS buffer (PBS + 2% FBS + 1 mM EDTA). […] Sorting was performed on a iQue (Intellicyt), with sort gates drawn to exclude dead (propidium iodide +) cells. Binding data was analyzed using median fluorescent intensity (MFI) and graphed in Prism. Values presented are MFI.
# [8] = target: T2, human TMEM106B; experiment: FACS A549, 10 ug/ml
# [9] = target: T2, human TMEM106B; experiment: FACS, HEK293 transfectants;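 on fold over negative controls: hybridoma supernatants incubated 30 min on ice with human TMEM106B-expressing HEK293 cells, binding read as anti-mouse-APC median fluorescence on live cells, relative to secondary-antibody-only wells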;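 on fold-change over parental HEK293: flow cytometry binding of hybridoma supernatants to HEK293 cells transiently expressing human, cyno or mouse TMEM106B, read as anti-mouse-APC median fluorescence, live cells only, 30 min on ice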
# [10] = target: T4, GST-fusion human TMEM106B truncated (human); experiment: array SPR, Ab immobilised;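 further: antibodies amine-coupled on an MX-96 chip, antigen flowed at 500 nM top concentration in 5-fold serial dilutions, GST alone run as nonspecific-binding control, duplicate measurements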
# T4 construct: also called GST-TMEM106B-truncated protein; GST-TMEM106B (truncated)
# Protocol: Binding kinetic characterization of the purified antibodies was performed by Carterra using a proprietary array SPR instrument (MX-96) as follows. Briefly, antibodies were prepared by diluting to 5 µg/ml in 10 mM Acetate, pH 4.5 (Carterra), at 150 µL/well and then made an additional dilution at 1:10 from there by titrating 11 µl into 100 µL. […] The chip was activated with 18 mM EDC (Sigma Bioxtra) and 4.5 mM S-NHS (Thermo Fisher) diluted in 100 mM MES, pH 5.5, for 7 minutes, and then antibodies were coupled for 10 minutes at 45 µL/minute. After coupling, the chip was returned to the MX-96 and quenched for 7 minutes using 1 M Ethanolamine pH 8.5 (Carterra).
# Printed antibodies were profiled for their ability to bind GST-TMEM106B (truncated) protein (described above). Briefly, GST-TMEM106B (truncated) antigen was diluted to 18 µg/ml (500 nM of 36 kDa fusion protein) by mixing 2.7 µL of 2.0 mg/ml antigen into 298 µL Running buffer (HBS-EP+, Teknova with 1 mg/ml BSA, Sigma), and titrated 50 µl into 200 µl for 5-fold serial dilutions. In addition, binding to GST (Pierce) was assayed under the same conditions to determine the extent of any nonspecific binding of the anti-TMEM106B antibodies to GST portion of the TMEM106B-GST fusion protein. Duplicate measurements for each anti-TMEM106B antibody were taken to ensure reproducibility.
# [11] = target: T2, human TMEM106B; experiment: FACS HEK+huTMEM, 10 ug/ml;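 further: purified mouse IgG antibodies at 10 µg/ml bound to HEK293 cells transiently expressing human TMEM106B, measured by flow cytometry as median fluorescence intensity of propidium iodide negative live cells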
# [12] = target: T2, human TMEM106B; experiment: FACS, HEK293 transfectants; remark: listed apart in the source;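 on fold over negative controls: hybridoma supernatants incubated 30 min on ice with human TMEM106B-expressing HEK293 cells, binding read as anti-mouse-APC median fluorescence on live cells, relative to secondary-antibody-only wells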;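 on fold-change over parental HEK293: flow cytometry binding of hybridoma supernatants to HEK293 cells transiently expressing human, cyno or mouse TMEM106B, read as anti-mouse-APC median fluorescence, live cells only, 30 min on ice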
# Protocol: (§5) For screening of the hybridoma cell culture supernatants, humanTMEM106B-transfected HEK293 cells were aliquoted in 96-well round bottom plates (2x10^5 cells per well) and incubated with 50 µL of hybridoma cell culture supernatant on ice for 30 minutes. […] Median fluorescence intensity (MFI) of anti-mouse-APC MFI on TMEM106B+ HEK293 cells was calculated for each clone, and those displaying a signal of at least 2-fold over background compared to a secondary-antibody only well were taken forward for further analysis and characterization.
# [13] = target: T5, cynomolgus (cyno) TMEM106B (cynomolgus, UniProt Q9NUM4 2-274 (human entry)); experiment: FACS, HEK293 transfectants;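 further: flow cytometry binding of hybridoma supernatants to HEK293 cells transiently expressing human, cyno or mouse TMEM106B, read as anti-mouse-APC median fluorescence, live cells only, 30 min on ice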
# T5 construct: on transiently transfected HEK293 cells
# Protocol: as §5
# [14] = target: T3, mouse TMEM106B; experiment: FACS, HEK293 transfectants;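 further: flow cytometry binding of hybridoma supernatants to HEK293 cells transiently expressing human, cyno or mouse TMEM106B, read as anti-mouse-APC median fluorescence, live cells only, 30 min on ice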
# Protocol: as §5
# [15] = target: T2, human TMEM106B; experiment: FACS HEK+huTMEM, 0.1 ug/ml;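 further: flow cytometry binding of purified mouse IgG antibodies to HEK293 cells transiently expressing TMEM106B, read as median fluorescence intensity with propidium iodide positive dead cells gated out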
# [16] = target: T2, human TMEM106B; experiment: FACS HEK+huTMEM, 1.0 ug/ml
# [17] = target: T2, human TMEM106B; experiment: FACS HEK+huTMEM, 0.01 ug/ml
# Protocol: as §4
Binder,binding result [1],MFI [2],MFI [3],MFI [4],MFI [5],binding result [6],MFI [7],MFI [8],fold over negative controls [9],Kd [10],koff [10],kon [10],MFI [11],fold-change over parental HEK293 [12],fold-change over parental HEK293 [13],fold-change over parental HEK293 [14],MFI [15],MFI [16],MFI [17]
B1,no binding,–,–,–,–,–,–,–,–,–,–,–,–,–,–,–,–,–,–
B2,no binding,–,–,–,–,–,–,–,–,–,–,–,–,–,–,–,–,–,–
B3,–,1170,1740,866,1610,no binding,1970,4800,> 2 fold,1.4 nM and 1.8 nM,3.3e-05 s⁻¹ and 4.8e-05 s⁻¹,23000 M⁻¹ s⁻¹ and 26000 M⁻¹ s⁻¹,59300,11.4 fold,37 fold,26.6 fold,10800,64500,2180
B4,–,1410,1650,730,1480,no binding,2480,4200,> 2 fold,3.5 nM and 5.2 nM,6.5e-05 s⁻¹ and 7.8e-05 s⁻¹,18000 M⁻¹ s⁻¹ and 15000 M⁻¹ s⁻¹,61200,35.1 fold,66 fold,44.6 fold,24400,63300,4050
B5,–,1990,2540,1540,2710,no binding,4880,7090,> 2 fold,4.2 nM and 5.2 nM,8.3e-05 s⁻¹ and 8.4e-05 s⁻¹,20000 M⁻¹ s⁻¹ and 16000 M⁻¹ s⁻¹,56400,10.7 fold,22.3 fold,8.52 fold,28300,62100,3940
B6,–,1800,2690,1080,1980,no binding,4840,7670,> 2 fold,1.7 nM and 2.1 nM,3.8e-05 s⁻¹ and 4.8e-05 s⁻¹,22000 M⁻¹ s⁻¹ and 23000 M⁻¹ s⁻¹,82300,24.4 fold,40.5 fold,29.2 fold,48700,89100,7700
B7,–,2000,2790,998,2740,no binding,2630,4350,> 2 fold,5.3 nM,7.2e-05 s⁻¹,14000 M⁻¹ s⁻¹,64800,19.7 fold,33.7 fold,22.1 fold,19800,66400,3340
B8,–,647,1070,442,1200,no binding,883,1810,> 2 fold,–,–,9900 M⁻¹ s⁻¹ and 10000 M⁻¹ s⁻¹,40800,17.5 fold,47.5 fold,15.5 fold,9870,40000,1670
B9,no binding,–,–,–,–,–,–,–,–,–,–,–,–,–,–,–,–,–,–
